{"source": "patent US20080070264A1", "about": "“Intracellular Signaling-Induced Ret-Independent Gdnf Receptor-Effected Morphological Changes” (JPMORGAN CHASE BANK N.A., priority 2003, published 2008)", "molecules": {"B1": {"name": "GDNF: recombinant glial cell line-derived neurotrophic factor from Cephalon Inc. (baculovirus-infected insect cells) or R&D Systems, Inc. (mouse myeloma NSO) (protein, UniProt P39905 78-211, looked up)", "Glial cell line-derived …": "SPDKQMAVLPRRERNRQAAAANPENSRGKGRRGQRGKNRGCVLTAIHLNVTDLGLGYETKEELIFRYCSGSCDAAETTYDKILKNLSRNRRLVSDKVGQACCRPIAFDDDLSFLDDNLVYHILRKHSAKRCGCI"}}, "key": {"[1]": {"test_system": "GFRα1-expressing MDCK cells", "assay": "Branching tubule formation assay in 3-D collagen gel", "assay_type": "cell-based, dog", "experimental": "(§1) From the total amount of cysts in the field, the percentage of cysts with long branches was calculated. Only branches with lengths of more than two cyst diameters were counted.\n(§2) FIG. 2C: Dose-dependence of GDNF-induced branching of GFRα1- and RET/GFRα1-expressing MDCK cells. GDNF concentrations are per ml (x-axis). Results are reported as fold of branching cysts count over the non-induced control. Means±standard errors of the mean of five to eight counted fields are shown. The results are representative of five (A and B) and three (C) independent experiments, p<0.001.\n(§3) Trypsinized cells were mixed 1:3 with collagen type I solution and plated. MEM with 10% FCS was overlaid on the gels with or without GDNF (Cephalon Inc. or R&D Systems, Inc.) or 50 ng/ml HGF. Cells in collagen were cultured for 3 days; GDNF-containing medium was changed daily. For quantification, cells were cultured for 3 days, fixed by 3% glutaraldehyde in PBS and counted under a light microscope.\n(§4) To avoid the effect of possible contamination of GDNF preparation, recombinant GDNF from two different sources were tested. One tested GDNF was expressed in baculovirus-infected insect cells (Cephalon Inc.), the other was expressed in mouse myeloma cell line NSO (R&D Systems, Inc.)."}, "[2]": {"test_system": "RET/GFRα1-expressing MDCK cells", "assay": "Branching tubule formation assay in 3-D collagen gel", "assay_type": "cell-based, dog", "experimental": "as §1, §2, §3, §4"}, "MET [3]": {"test_system": "MET", "assay": "MET activation in GFRα1-transfected NIH 3T3 fibroblasts", "assay_type": "cell-based"}, "RET": {"biological_target": "T1, RET (UniProt P07949+Q62997)", "T1 construct": "expressed in transfected cells", "T1 sequence (P07949 29-1114)": "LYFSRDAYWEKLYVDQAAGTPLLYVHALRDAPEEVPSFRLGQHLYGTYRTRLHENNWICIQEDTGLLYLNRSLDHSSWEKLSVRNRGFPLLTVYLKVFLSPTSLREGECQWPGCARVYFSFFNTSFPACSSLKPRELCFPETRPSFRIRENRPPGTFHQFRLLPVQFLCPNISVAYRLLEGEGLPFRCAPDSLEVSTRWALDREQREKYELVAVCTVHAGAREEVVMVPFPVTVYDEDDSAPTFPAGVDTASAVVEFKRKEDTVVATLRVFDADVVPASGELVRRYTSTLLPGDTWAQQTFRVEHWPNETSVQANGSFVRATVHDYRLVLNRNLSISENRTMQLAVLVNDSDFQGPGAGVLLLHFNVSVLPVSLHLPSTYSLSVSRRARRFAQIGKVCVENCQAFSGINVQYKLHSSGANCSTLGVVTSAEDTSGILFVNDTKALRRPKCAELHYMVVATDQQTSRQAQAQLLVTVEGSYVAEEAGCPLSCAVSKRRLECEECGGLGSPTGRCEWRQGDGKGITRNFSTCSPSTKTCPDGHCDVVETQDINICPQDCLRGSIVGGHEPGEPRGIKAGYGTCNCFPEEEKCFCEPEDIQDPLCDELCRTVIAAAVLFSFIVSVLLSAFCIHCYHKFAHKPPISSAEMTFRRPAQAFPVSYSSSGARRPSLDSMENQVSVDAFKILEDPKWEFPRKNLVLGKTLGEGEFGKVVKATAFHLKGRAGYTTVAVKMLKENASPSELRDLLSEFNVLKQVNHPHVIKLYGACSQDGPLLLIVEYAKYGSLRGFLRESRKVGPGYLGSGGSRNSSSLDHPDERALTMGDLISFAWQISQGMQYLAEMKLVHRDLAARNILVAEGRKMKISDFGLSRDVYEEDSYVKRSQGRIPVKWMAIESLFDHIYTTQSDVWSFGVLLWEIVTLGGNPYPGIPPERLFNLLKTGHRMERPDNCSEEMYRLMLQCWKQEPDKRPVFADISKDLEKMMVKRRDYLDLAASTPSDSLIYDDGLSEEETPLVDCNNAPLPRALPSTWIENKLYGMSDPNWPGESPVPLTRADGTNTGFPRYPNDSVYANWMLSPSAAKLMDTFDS", "T1 sequence (Q62997 25-430 limits assumed)": "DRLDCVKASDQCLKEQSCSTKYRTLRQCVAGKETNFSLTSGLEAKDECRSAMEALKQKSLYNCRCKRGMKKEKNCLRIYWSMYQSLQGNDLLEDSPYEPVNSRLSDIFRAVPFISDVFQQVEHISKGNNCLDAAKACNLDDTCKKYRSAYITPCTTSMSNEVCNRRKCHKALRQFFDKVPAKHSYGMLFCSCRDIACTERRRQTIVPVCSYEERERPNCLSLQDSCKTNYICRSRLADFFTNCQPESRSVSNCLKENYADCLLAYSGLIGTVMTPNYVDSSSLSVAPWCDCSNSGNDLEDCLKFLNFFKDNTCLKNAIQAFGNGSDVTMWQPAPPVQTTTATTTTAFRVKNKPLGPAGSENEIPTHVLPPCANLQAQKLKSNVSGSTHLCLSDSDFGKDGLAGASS", "assay": "RET phosphorylation in RET/GFRα1-expressing MDCK cells", "assay_type": "cell-based, dog", "experimental": "FIG. 4D: Dose-dependent activation of RET by GDNF in RET/GFRα1-expressing MDCK cells. […]. […] The numbers below the lanes indicate the fold of induction of RET tyrosine kinase. IP, immunoprecipitation; WB, Western blotting; P-tyr, phospho-tyrosine. The results are representative of three independent experiments.\n(§5) To detect MET activation, GFRα1- and RET/GFRα1-expressing MDCK or SHEP cells were starved overnight in MEM or RPMI 1640 with 1% FCS, respectively, and in serum-free medium for 2 h prior the induction. After 15 min incubation at 37° C. with GDNF (at indicated concentrations) or with 50 ng/ml HGF, cells were lysed as described. Cleared cell lysates were incubated with anti-MET antibodies (Santa Cruz Biotechnologies, Inc.) overnight at 4° C. Immunoprecipitates were collected with protein A-SEPHAROSE (Amersham Pharmacia Biotech), washed, separated by SDS-PAGE and transferred to HYBOND-ECL membranes. Membranes were immunoblotted with anti-phospho-tyrosine antibodies (Upstate Group Inc.) or anti-MET antibodies.\nThe above procedure was also followed to detect RET phosphorylation in RET/GFRα1-expressing MDCK, however, for these experiments, anti-RET antibodies (Santa Cruz Biotechnologies, Inc.) were used for the immunoprecipitation and immunoblotting."}, "wild-type MDCK cells": {"test_system": "wild-type MDCK cells", "assay": "Branching tubule formation assay in 3-D collagen gel", "assay_type": "cell-based, dog", "experimental": "as §1, §3, §4"}, "MET [4]": {"test_system": "MET", "assay": "MET phosphorylation in SHEP neuroblastoma cells", "assay_type": "cell-based, human", "conditions": "GDNF 0.1 pg/ml; SHEP cells express GFRα1 but not RET; data not shown", "experimental": "FIG. 7B: SHEP cells were grown with GDNF (10 ng/ml (lanes 2-4) or 5 pg/ml (lanes 5-7)) or HGF (10 ng/ml (lanes 8-9)) in the presence of PP2 (1 μM (lanes 3 and 6) and 10 μM (lanes 4 and 7)). To exclude a possible cytotoxic effect of the solvent, DMSO was added to the controls. […] The numbers below the lane indicate the fold of induction of MET tyrosine kinase. The results are representative of three independent experiments.\nas §5\nFor all experiments, densitometry and quantifications were performed using TINA 2.0 program (Raytest, Straubenhardt, Germany).\nFor the inhibition of MET, and Src activation, SHEP or GFRα1- and RET/GFRα1-expressing MDCK cells were starved as described above. 1 or […] of the inhibitor PP2 (Calbiochem) was added 30 min before induction by GDNF or HGF. DMSO (dimethyl sulfoxide) was added to the positive controls together with GDNF or HGF."}, "Src-type kinases": {"test_system": "Src-type kinases", "assay": "Src activation (Tyr418 phosphorylation) in MDCK cells", "assay_type": "cell-based, dog", "conditions": "GFRα1-expressing and RET/GFRα1-expressing MDCK cells", "experimental": "FIG. 7A: Dose-dependent Src-kinase activation by GDNF in GFRα1-expressing and RET/GFRα1-expressing MDCK cells. The activation of Src-type kinases was observed after 15 minutes. The concentrations of GDNF are indicated. The numbers below the lane reflect the fold of increase in phosphorylation of Tyr418 of Src. The lower panels show the re-probing of the same filter with anti-Src antibodies. The results are representative of three independent experiments.\nTo analyze Src activation, subconfluent GFRα1- and RET/GFRα1-expressing MDCK cell cultures were starved for 24 h before induction in serum-free MEM. After 10 min incubation at 37° C. with 50 ng/ml GDNF (Cephalon Inc. or R&D Systems, Inc.) or 50 ng/ml HGF (Sigma) cells were lysed in lysis buffer supplemented with 1 mM Na-orthovanadate and analyzed by Western blotting as described (Lindahl et al., 2001). The Western blots were probed with the indicated antibodies and developed with ECL reagents (Amersham Pharmacia Biotech). Antibodies used included anti-Y^418 Src and anti-Src (BioSource International).\nPossible candidates for messengers between GDNF-GFRα1 complex and MET are Src family kinases. […]"}, "[5]": {"conditions": "ligand 100 ng/ml, 3-D collagen gel"}}, "data": [{"molecule": "B1", "values": [{"measurement": "GDNF concentration that evoked tubulogenesis", "setting": "[1]; cells expressing GFRα1 but not RET, dose-response FIG. 2C", "value": 0.1, "unit": "pg/ml"}, {"measurement": "branching tubule formation", "setting": "[1]; [5]", "value": "formed branching tubules"}, {"measurement": "branching tubulogenesis", "setting": "[1]; wild-type MDCK transduced with an adenovirus expressing GFRα1, data not shown", "value": "induced branching tubulogenesis"}, {"measurement": "GDNF concentration at which cells started to branch", "setting": "[2]; cells co-expressing RET and GFRα1, dose-response FIG. 2C", "value": 0.1, "unit": "ng/mL"}, {"measurement": "branching tubule formation", "setting": "[2]; [5]", "value": "formed branching tubules"}, {"measurement": "MET activation", "setting": "MET [3]", "value": "takes place"}, {"measurement": "GDNF concentration at which RET phosphorylation reached saturation", "setting": "RET", "value": 10, "unit": "ng/mL"}, {"measurement": "GDNF concentration at which RET phosphorylation was observed", "setting": "RET", "value": 0.1, "unit": "pg/mL"}, {"measurement": "time to RET activation", "setting": "RET; data not shown", "value": "≥ 2", "unit": "h"}, {"measurement": "branching tubule formation", "setting": "wild-type MDCK cells; [5]", "value": "did not"}, {"measurement": "branching tubule formation", "setting": "wild-type MDCK cells; mock-transfected MDCK cells used as controls", "value": "did not from branching tubules"}, {"measurement": "MET phosphorylation", "setting": "MET [4]", "value": "induced rapid MET phosphorylation"}, {"measurement": "GDNF concentration that saturated Src phosphorylation", "setting": "Src-type kinases", "value": 0.1, "unit": "pg/mL"}, {"measurement": "time at which activation of Src-type kinases was observed", "setting": "Src-type kinases", "value": 15, "unit": "min"}]}]}
